Reference: US20240317834A1, “COMPOSITIONS AND METHODS FOR NEUROLOGICAL DISEASES” (CODA BIOTHERAPEUTICS, INC., priority 2020, published 2024)
Where a chain is given by its changes, count along the chain named. Numbers in names are those of the source.

Test system: Lenti-X 293T cells
Assay: YFP fluorescence quenching anion reporter plate reader assay of engineered receptors stimulated with acetylcholine or a non-native ligand
Assay type: cell-based
Conditions: for percent quench of YFP fluorescence, 30 nM TC-6683: TC-6683 30 nM; for percent quench of YFP fluorescence, 300 nM TC-6683: TC-6683 300 nM; for percent quench of YFP fluorescence, 3 uM TC-6683: TC-6683 3 uM; for percent quench of YFP fluorescence, 30 uM TC-6683: TC-6683 30 uM; for percent quench of YFP fluorescence, 100 uM TC-6683: TC-6683 100 uM; for percent quench of YFP fluorescence, 10 uM ach: acetylcholine 10 uM; for percent quench of YFP fluorescence, 100 uM ach: acetylcholine 100 uM; for percent quench of YFP fluorescence, 1 mM ach: acetylcholine 1 mM; for percent quench of YFP fluorescence, 3 mM ach: acetylcholine 3 mM
Summary of the method: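 YFP quench was followed for about 1 min 43 s after ligand delivered in iodide-based ECS, pH 7.2. Values are end-of-read fluorescence (last 10 s) divided by the pre-ligand baseline (15 s). Cells were LX293T, transfected with receptor DNA a day before the assay.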

B1: CODA334: engineered chimeric LGIC receptor, L131Q in SEQ ID NO: 33 (protein)
chain: MRCSPGGVWLALAASLLHVSLQGEFQRKLYKELVKNYNPLERPVANDSQPLTVYFSLSLLQIMDVDEKNQVLTTNIWLQMSWTDHYLQWNVSEYPGVKTVRFPDGQIWKPDILLYNSADERFDATFHTNVQVNSSGHCQYLPPGIFKSSCPMDLKNFPMDVQTCKLKFGSWSYGGWSLDLQMQEADISGYIPNGEWDLVGIPGKRSERFYECCKEPYPDVTFTVTMRRRMGYYLIQMYIPSLLIVILSWISFWINMDAAPARVGLGITTVLTMTTQSSGSRASLPKVSYVKAIDIWMAVCLLFVFSALLEYAAVNFVSRQHKELLRFRRKRRHHKSPMLNLFQEDEAGEGRFNFSAYGMGPACLQAKDGISVKGANNSNTTNPPPAPSKSPEEMRKLFIQRAKKIDKISRIGFPMAFLIFNMFYWIIYKIVRREDVHNQ
modifications: synthetic sequence of chimeric LGIC
In the case of B1, the “YFP fluorescence quenching using CNL001” value (1 nM CNL001, first column) is reported as 76.165%, the “YFP fluorescence quenching using CNL001” value (1 nM CNL001, second column) is reported as 78.463% and the “YFP fluorescence quenching using TC-5619/Bradanicline” value (3 nM brd) is reported as 41.92%. The “YFP fluorescence quenching using Varenicline” value (3 nM var, first column) was −5.192, the “YFP fluorescence quenching using Varenicline” value (3 nM var, second column) was −4.327 and the “YFP fluorescence quenching using CNL001” value (10 nM CNL001, first column) was 79.349%. For the same molecule, the “YFP fluorescence quenching using CNL001” value (10 nM CNL001, second column) was 78.238%, the “YFP fluorescence quenching using TC-5619/Bradanicline” value (30 nM brd) was 63.65% and the “YFP fluorescence quenching using Facinicline” value (30 nM fac) was 83.07. The “YFP fluorescence quenching using Varenicline” value (30 nM var, first column) was −0.688, the “YFP fluorescence quenching using Varenicline” value (30 nM var, second column) was 0.672 and the “YFP fluorescence quenching using CNL001” value (50 nM CNL001, first column) was 80.221%. The “YFP fluorescence quenching using CNL001” value (50 nM CNL001, second column) was 81.789%, the “YFP fluorescence quenching using ABT-126” value (50 nM abt) was 23.65% and the “YFP fluorescence quenching using CNL001” value (100 nM CNL001, first column) was 82%. The “YFP fluorescence quenching using CNL001” value (100 nM CNL001, second column) was 80.766%, the “YFP fluorescence quenching using CNL002” value (100 nM CNL002) was 49.9% and the “YFP fluorescence quenching using ABT-126” value (100 nM abt) was 61.83%. For the same molecule, the “YFP fluorescence quenching using AZD-0328” value (100 nM azd0328) was 80.55%, the “YFP fluorescence quenching using Facinicline” value (100 nM fac) was 85.36 and the “YFP fluorescence quenching using ABT-126” value (300 nM abt) was 76.44%. For the same molecule, the “YFP fluorescence quenching using AZD-0328” value (300 nM azd0328) was 83.15%, the “YFP fluorescence quenching using TC-5619/Bradanicline” value (300 nM brd) was 64.85% and the “YFP fluorescence quenching using Facinicline” value (300 nM fac) was 84.19. The “YFP fluorescence quenching using Varenicline” value (300 nM var, first column) was 75.189, the “YFP fluorescence quenching using Varenicline” value (300 nM var, second column) was 74.923 and the “YFP fluorescence quenching using Varenicline” value (500 nM var, first column) was 79.048. For the same molecule, the “YFP fluorescence quenching using Varenicline” value (500 nM var, second column) was 80.337, the “YFP fluorescence quenching using CNL001” value (1 uM CNL001, first column) was 81.707% and the “YFP fluorescence quenching using CNL001” value (1 uM CNL001, second column) was 82.665%. The “YFP fluorescence quenching using CNL002” value (1 uM CNL002) was 80.72%, the “YFP fluorescence quenching using ABT-126” value (1 uM abt) was 77.68% and the “YFP fluorescence quenching using TC-6987” value (1 uM tc6987) was 74.1. For the same molecule, the “YFP fluorescence quenching using Varenicline” value (1 uM var, first column) was 79.766, the “YFP fluorescence quenching using Varenicline” value (1 uM var, second column) was 76.836 and the “YFP fluorescence quenching using TC-6987” value (10 uM tc6987) was 81.7. For the same molecule, the “YFP fluorescence quenching using CNL002” value (30 uM CNL002) was 80.97%, the “YFP fluorescence quenching using AZD-0328” value (30 uM azd0328) was 82.53% and the “YFP fluorescence quenching using Facinicline” value (30 uM fac) was 82.75. For the same molecule, the “YFP fluorescence quenching using TC-6987” value (500 uM tc6987) was 80.18, the “percent quench of YFP fluorescence, 30 nM TC-6683” value was −17.99% and the “percent quench of YFP fluorescence, 300 nM TC-6683” value was −23.26%. For the same molecule, the “percent quench of YFP fluorescence, 3 uM TC-6683” value was −18.84%, the “percent quench of YFP fluorescence, 30 uM TC-6683” value was −16.92% and the “percent quench of YFP fluorescence, 100 uM TC-6683” value was −15.59%. For the same molecule, the “percent quench of YFP fluorescence, 10 uM ach” value was −2.63%, the “percent quench of YFP fluorescence, 30 uM ach” value (acetylcholine 30 uM) was 30.06% and the “percent quench of YFP fluorescence, 100 uM ach” value was 71.27%. The “percent quench of YFP fluorescence, 1 mM ach” value was 79.66% and the “percent quench of YFP fluorescence, 3 mM ach” value was 74.9%.

B2: CODA335: engineered chimeric LGIC receptor, L131T in SEQ ID NO: 33 (protein)
chain: B1 chain with Q131T
modifications: synthetic sequence of chimeric LGIC
For B2, the “YFP fluorescence quenching using CNL001” value (1 nM CNL001, first column) was −9.942%, the “YFP fluorescence quenching using CNL001” value (1 nM CNL001, second column) was −0.475% and the “YFP fluorescence quenching using TC-5619/Bradanicline” value (1 nM brd) was −2.39%. For the same molecule, the “YFP fluorescence quenching using TC-5619/Bradanicline” value (3 nM brd) was −4.08%, the “YFP fluorescence quenching using Varenicline” value (3 nM var, first column) was 0.398 and the “YFP fluorescence quenching using Varenicline” value (3 nM var, second column) was 3.947. The “YFP fluorescence quenching using CNL001” value (10 nM CNL001, first column) was 17.889%, the “YFP fluorescence quenching using CNL001” value (10 nM CNL001, second column) was 38.46% and the “YFP fluorescence quenching using TC-5619/Bradanicline” value (10 nM brd) was −3.3%. For the same molecule, the “YFP fluorescence quenching using TC-5619/Bradanicline” value (30 nM brd) was −9.69%, the “YFP fluorescence quenching using Facinicline” value (30 nM fac) was 1.24 and the “YFP fluorescence quenching using Varenicline” value (30 nM var, first column) was 5.31. The “YFP fluorescence quenching using Varenicline” value (30 nM var, second column) was 7.666, the “YFP fluorescence quenching using CNL001” value (50 nM CNL001, first column) was 61.741% and the “YFP fluorescence quenching using CNL001” value (50 nM CNL001, second column) was 69.159%. The “YFP fluorescence quenching using ABT-126” value (50 nM abt) was −18%, the “YFP fluorescence quenching using CNL001” value (100 nM CNL001, first column) was 73.635% and the “YFP fluorescence quenching using CNL001” value (100 nM CNL001, second column) was 76.092%. For the same molecule, the “YFP fluorescence quenching using CNL002” value (100 nM CNL002) was −14.53%, the “YFP fluorescence quenching using ABT-126” value (100 nM abt) was −16.39% and the “YFP fluorescence quenching using AZD-0328” value (100 nM azd0328) was 11.33%. For the same molecule, the “YFP fluorescence quenching using TC-5619/Bradanicline” value (100 nM brd) was −1.05%, the “YFP fluorescence quenching using ABT-126” value (300 nM abt) was −15.05% and the “YFP fluorescence quenching using AZD-0328” value (300 nM azd0328) was 44.15%. For the same molecule, the “YFP fluorescence quenching using TC-5619/Bradanicline” value (300 nM brd) was 10.53%, the “YFP fluorescence quenching using Facinicline” value (300 nM fac) was 46.92 and the “YFP fluorescence quenching using Varenicline” value (300 nM var, first column) was 4.327. The “YFP fluorescence quenching using Varenicline” value (300 nM var, second column) was 3.275, the “YFP fluorescence quenching using Varenicline” value (500 nM var, first column) was 1.835 and the “YFP fluorescence quenching using Varenicline” value (500 nM var, second column) was 4.863. For the same molecule, the “YFP fluorescence quenching using CNL001” value (1 uM CNL001, first column) was 80.633%, the “YFP fluorescence quenching using CNL001” value (1 uM CNL001, second column) was 79.637% and the “YFP fluorescence quenching using CNL002” value (1 uM CNL002) was 6.45%. For the same molecule, the “YFP fluorescence quenching using ABT-126” value (1 uM abt) was −5.56%, the “YFP fluorescence quenching using TC-5619/Bradanicline” value (1 uM brd) was 34.72% and the “YFP fluorescence quenching using TC-6987” value (1 uM tc6987) was −0.14. For the same molecule, the “YFP fluorescence quenching using Varenicline” value (1 uM var, first column) was 9.471, the “YFP fluorescence quenching using Varenicline” value (1 uM var, second column) was 7.505 and the “YFP fluorescence quenching using TC-6987” value (3 uM tc6987) was −8.32. For the same molecule, the “YFP fluorescence quenching using TC-6987” value (5 uM tc6987) was −2.13, the “YFP fluorescence quenching using Facinicline” value (10 uM fac) was 79.06 and the “YFP fluorescence quenching using TC-6987” value (10 uM tc6987) was 0.13. For the same molecule, the “YFP fluorescence quenching using CNL002” value (30 uM CNL002) was 57.43%, the “YFP fluorescence quenching using AZD-0328” value (30 uM azd0328) was 80.96% and the “YFP fluorescence quenching using Facinicline” value (30 uM fac) was 81.06. The “YFP fluorescence quenching using TC-6987” value (30 uM tc6987) was −6.86, the “YFP fluorescence quenching using TC-6987” value (50 uM tc6987) was −9.5 and the “YFP fluorescence quenching using TC-6987” value (100 uM tc6987) was −10.98. For the same molecule, the “YFP fluorescence quenching using TC-6987” value (300 uM tc6987) was −12.16, the “YFP fluorescence quenching using TC-6987” value (500 uM tc6987) was −2.41 and the “percent quench of YFP fluorescence, 30 nM TC-6683” value was −13.84%. The “percent quench of YFP fluorescence, 300 nM TC-6683” value was −20.66%, the “percent quench of YFP fluorescence, 3 uM TC-6683” value was −17.86% and the “percent quench of YFP fluorescence, 30 uM TC-6683” value was −18.91%. The “percent quench of YFP fluorescence, 100 uM TC-6683” value was −16.88%, the “percent quench of YFP fluorescence, 10 uM ach” value was −9.13% and the “percent quench of YFP fluorescence, 100 uM ach” value was −9.29%. The “percent quench of YFP fluorescence, 1 mM ach” value was 0.57% and the “percent quench of YFP fluorescence, 3 mM ach” value was 35.37%.
